Patent US20060067886A1, “Gastrin receptor-avid peptide conjugates” (priority 1997, published 2006)

System: PC-3 human tumor xenografts
Assay: in vivo
Protocol: In vivo pharmacokinetic studies in human tumor bearing SCID mice. […] The xenograft models were produced by bilateral flank inoculation of 5×10^6 cells (PC-3 or MDA-MB-231 cells) per site. Four to six weeks post inoculation, palpable tumors were observed. At this point, the mice were injected with 4 μCi of the complex in […] of isotonic saline via the tail vein. The mice were euthanized and tissues and organs were excised from the animals at selected times post-injection (p.i.), including 15 minutes, 30 minutes, 1 hour, 4 hours, 24 hours, 48 hours, and 72 hours p.i. Subsequently, the tissues and organs were weighed and counted in a NaI well counter and the percent injected dose (% ID) and % ID/g of each organ or tissue calculated.
The mice were injected with 4 μCi of the complex in 100 μL of isotonic saline via the tail vein. The mice were euthanized by cervical dislocation. Tissues and organs were excised from the animals following at 1 hour, 4 hour, and 24 hours post-injection (p.i.). Subsequently, the tissues and organs were weighed and counted in a NaI well counter and the percent injected dose (% ID) and % ID/g of each organ or tissue calculated.

## CSCC[C@H](NC(=O)[C@H](CC(C)C)NC(=O)[C@H](Cc1cnc[nH]1)NC(=O)CNC(=O)[C@@H](NC(=O)[C@H](C)NC(=O)[C@H](Cc1c[nH]c2ccccc12)NC(=O)[C@H](CCC(N)=O)NC(=O)CCCCCCCNC(=O)CN1CCN(CC(=O)O)CCN(CC(=O)O)CCN(CC(=O)O)CC1)C(C)C)C(N)=O [90Y-DOTA-8-Aoc-BBN[7-14]NH2] [metal not drawn]
1 hr
  Avg % ID, Blood: 0.56 ± 0.20 % ID
  Avg % ID, Carcass: 0.62 ± 0.44 % ID
  Avg % ID, Kidney: 1.22 ± 0.46 % ID
  Avg % ID, L. Intestine: 2.44 ± 0.66 % ID
  Avg % ID, Lung: 0.06 ± 0.03 % ID
  Avg % ID, Muscle: 0.02 ± 0.02 % ID
  Avg % ID, Pancreas: 5.70 ± 1.60 % ID
  Avg % ID, S. Intestine: 4.65 ± 0.98 % ID
  Avg % ID, Spleen: 0.07 ± 0.04 % ID
  Avg % ID, Urine: 57.73 ± 14.52 % ID
  Avg % ID/gm, Blood: 0.34 ± 0.12 % ID/gm
  Avg % ID/gm, Heart: 0.10 ± 0.11 % ID/gm
  Avg % ID/gm, Lung: 0.22 ± 0.12 % ID/gm
  Avg % ID/gm, Muscle: 0.15 ± 0.19 % ID/gm
  Avg % ID/gm, Pancreas: 24.73 ± 4.97 % ID/gm
  Avg % ID/gm, Spleen: 1.09 ± 0.67 % ID/gm
  Avg % ID/gm, Stomach: 1.34 ± 0.64 % ID/gm
  Avg % ID/gm, Tumor: 2.95±0.99 % ID/gm
4 hrs
  Avg % ID, Blood: 0.09 ± 0.13 % ID
  Avg % ID, Carcass: 0.14 ± 0.11 % ID
  Avg % ID, Kidney: 0.54 ± 0.25 % ID
  Avg % ID, L. Intestine: 3.33 ± 0.71 % ID
  Avg % ID, Liver: 0.19 ± 0.13 % ID
  Avg % ID, Pancreas: 3.42 ± 0.82 % ID
  Avg % ID, S. Intestine: 2.06 ± 1.27 % ID
  Avg % ID, Spleen: 0.02 ± 0.03 % ID
  Avg % ID, Stomach: 0.18 ± 0.06 % ID
  Avg % ID, Tumor: 0.34 ± 0.22 % ID
  Avg % ID, Urine: 67.02 ± 16.74 % ID
  Avg % ID/gm, Blood: 0.05 ± 0.07 % ID/gm
  Avg % ID/gm, Heart: 0.10 ± 0.14 % ID/gm
  Avg % ID/gm, Kidney: 1.68 ± 0.76 % ID/gm
  Avg % ID/gm, L. Intestine: 5.17 ± 1.85 % ID/gm
  Avg % ID/gm, Liver: 0.18 ± 0.12 % ID/gm
  Avg % ID/gm, Lung: 0.07 ± 0.07 % ID/gm
  Avg % ID/gm, Muscle: 0.07 ± 0.13 % ID/gm
  Avg % ID/gm, Pancreas: 14.02 ± 4.89 % ID/gm
  Avg % ID/gm, S. Intestine: 1.66 ± 0.91 % ID/gm
  Avg % ID/gm, Stomach: 0.55 ± 0.16 % ID/gm
  Avg % ID/gm, Tumor: 1.98±0.66 % ID/gm
24 hrs
  Avg % ID, Blood: 0.12 ± 0.14 % ID
  Avg % ID, Feces: 10.71 ± 8.29 % ID
  Avg % ID, Heart: 0.00 ± 0.00 % ID
  Avg % ID, Kidney: 0.17 ± 0.09 % ID
  Avg % ID, L. Intestine: 1.11 ± 0.75 % ID
  Avg % ID, Liver: 0.10 ± 0.03 % ID
  Avg % ID, Lung: 0.00 ± 0.00 % ID
  Avg % ID, Muscle: 0.00 ± 0.01 % ID
  Avg % ID, S. Intestine: 0.51 ± 0.20 % ID
  Avg % ID, Tumor: 0.16 ± 0.09 % ID
  Avg % ID, Urine: 67.62 ± 17.26 % ID
  Avg % ID/gm, Blood: 0.07 ± 0.08 % ID/gm
  Avg % ID/gm, Heart: 0.00 ± 0.00 % ID/gm
  Avg % ID/gm, Kidney: 0.51 ± 0.25 % ID/gm
  Avg % ID/gm, L. Intestine: 1.27 ± 0.92 % ID/gm
  Avg % ID/gm, Liver: 0.08 ± 0.03 % ID/gm
  Avg % ID/gm, Lung: 0.01 ± 0.02 % ID/gm
  Avg % ID/gm, Muscle: 0.02 ± 0.03 % ID/gm
  Avg % ID/gm, Pancreas: 1.80 ± 0.57 % ID/gm
  Avg % ID/gm, Spleen: 0.11 ± 0.13 % ID/gm
  Avg % ID/gm, Stomach: 0.09 ± 0.07 % ID/gm
  Avg % ID/gm, Tumor: 1.08±0.37 % ID/gm
48 hrs
  Avg % ID, Blood: 0.10 ± 0.14 % ID
  Avg % ID, Carcass: 0.11 ± 0.17 % ID
  Avg % ID, Heart: 0.02 ± 0.02 % ID
  Avg % ID, Kidney: 0.10 ± 0.04 % ID
  Avg % ID, Pancreas: 0.15 ± 0.04 % ID
  Avg % ID, S. Intestine: 0.16 ± 0.06 % ID
  Avg % ID, Tumor: 0.11 ± 0.07 % ID
  Avg % ID, Urine: 76.74 ± 21.06 % ID
  Avg % ID/gm, Blood: 0.06 ± 0.08 % ID/gm
  Avg % ID/gm, Heart: 0.14 ± 0.19 % ID/gm
  Avg % ID/gm, Kidney: 0.29 ± 0.12 % ID/gm
  Avg % ID/gm, L. Intestine: 0.77 ± 0.15 % ID/gm
  Avg % ID/gm, Muscle: 0.07 ± 0.13 % ID/gm
  Avg % ID/gm, Pancreas: 0.59 ± 0.14 % ID/gm
  Avg % ID/gm, S. Intestine: 0.13 ± 0.04 % ID/gm
  Avg % ID/gm, Spleen: 0.09 ± 0.24 % ID/gm
  Avg % ID/gm, Tumor: 0.58 ± 0.30 % ID/gm
72 hrs
  Avg % ID, Blood: 0.11 ± 0.15 % ID
  Avg % ID, Carcass: 0.10 ± 0.11 % ID
  Avg % ID, Kidney: 0.13 ± 0.07 % ID
  Avg % ID, Liver: 0.08 ± 0.11 % ID
  Avg % ID, Lung: 0.00 ± 0.01 % ID
  Avg % ID, Pancreas: 0.08 ± 0.05 % ID
  Avg % ID, S. Intestine: 0.11 ± 0.07 % ID
  Avg % ID, Spleen: 0.02 ± 0.01 % ID
  Avg % ID, Tumor: 0.06 ± 0.06 % ID
  Avg % ID, Urine: 82.97 ± 25.39 % ID
  Avg % ID/gm, Blood: 0.06 ± 0.09 % ID/gm
  Avg % ID/gm, Kidney: 0.43 ± 0.29 % ID/gm
  Avg % ID/gm, L. Intestine: 0.47 ± 0.24 % ID/gm
  Avg % ID/gm, Liver: 0.08 ± 0.11 % ID/gm
  Avg % ID/gm, Lung: 0.02 ± 0.03 % ID/gm
  Avg % ID/gm, Muscle: 0.08 ± 0.19 % ID/gm
  Avg % ID/gm, Pancreas: 0.27 ± 0.17 % ID/gm
  Avg % ID/gm, S. Intestine: 0.08 ± 0.05 % ID/gm
  Avg % ID/gm, Spleen: 0.28 ± 0.26 % ID/gm
  Avg % ID/gm, Stomach: 0.07 ± 0.03 % ID/gm
  Avg % ID/gm, Tumor: 0.46 ± 0.48 % ID/gm
